Legend:
[1] = target: T1, GEF-H1 peptide, amino acids 807-824 (unphosphorylated)
T1 chain: RRRSLPAGDALYLSFNPP

[2] = target: GST-Maguin-2-like fusion protein (amino acids 385-555) [GST: P08515]
GST-GEF-H1S (aa763-921) = target: T2, GST-GEF-H1S (aa763-921)
T2 chain: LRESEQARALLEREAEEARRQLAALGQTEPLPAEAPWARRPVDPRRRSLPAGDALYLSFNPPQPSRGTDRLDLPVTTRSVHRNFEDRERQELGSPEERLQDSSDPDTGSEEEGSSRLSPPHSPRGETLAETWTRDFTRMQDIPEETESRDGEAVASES

[3] = target: T3, GEF-H1 peptide 807-824 with phospho-serine at position 810
T3 chain: RRRSLPAGDALYLSFNPP

[4] = target: T4, GEF-H1 peptide, amino acids 55-72
T4 chain: RQSLLGSRRGRSSLSLAK

[5] = target: GST (Glutathione-S-transferase) [GST: P08515]
Chain of GST (Glutathione-S-transferase) [GST: P08515] (P08515 whole entry): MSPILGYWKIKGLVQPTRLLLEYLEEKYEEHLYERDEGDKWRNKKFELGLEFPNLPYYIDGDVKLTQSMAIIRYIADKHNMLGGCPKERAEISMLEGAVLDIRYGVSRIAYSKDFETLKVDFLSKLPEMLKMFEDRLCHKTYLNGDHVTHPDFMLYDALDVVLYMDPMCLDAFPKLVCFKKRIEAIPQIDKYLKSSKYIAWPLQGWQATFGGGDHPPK

Chain of GST-Maguin-2-like fusion protein (amino acids 385-555) [GST: P08515] (P08515 whole entry, looked up, the tested form may be a part): as the sequence (P08515 whole entry) above

B1: Glutathione-s-transferase (GST) fused PAK4 (residues 291-591) (protein)
chain: SPQREPQRVSHEQFRAALQLVVDPGDPRSYLDNFIKIGEGSTGIVCIATVRSSGKLVAVKKMDLRKQQRRELLFNEVVIMRDYQHENVVEMYNSYLVGDELWVVMEFLEGGALTDIVTHTRMNEEQIAAVCLAVLQALSVLHAQGVIHRDIKSDSILLTHDGRVKLSDFGFCAQVSKEVPRRKSLVGTPYWMAPELISRLPYGPEVDIWSLGIMVIEMVDGEPPYFNEPPLKAMKMIRDNLPPRLKNLHKVSPSLKGFLDRLLVRDPAQRATAAELLKHPFLAKAGPPASIVPLMRQNRTR
**Q.** Which results are given for B1?
**A.** Km (in vitro kinase assay) [1]: also a high affinity substrate for PAK4 with a similar Km for PAK4 as the GST-GEF-H1 (793-921) fusion protein; phosphorylation in in vitro kinase assays [1]: are phosphorylated by PAK4; phosphorylation in an in vitro kinase assay [2]: weakly phosphorylated the GST-Maguin-2-like fusion protein; Km (in vitro kinase assay) (GST-GEF-H1S (aa763-921)): Km is the 1 to 5 uM range; phosphorylation in an in vitro kinase reaction (SDS-PAGE, autoradiograph) (GST-GEF-H1S (aa763-921)): The autoradiograph showed phosphorylation of the GEF-H1S polypeptide; phosphorylation in an in vitro kinase assay [3]: Peptides with phospho-serine at position 810 were no longer substrates for PAK4; phosphorylation in in vitro kinase assays [4]: are phosphorylated by PAK4; phosphorylation in an in vitro kinase assay [5]: PAK4 fails to phosphorylate the GST control; phosphorylation in an in vitro kinase reaction (SDS-PAGE, autoradiograph) [5]: no phosphorylation of the fusion partner GST

Reference: patent US20040091907
